Laboratory results published in patent publication US20220098265A1 (MEDIMMUNE LIMITED, priority 2012, published 2022).
Numbered stars: 1 amine (or outer) side, 2 acyl side, 3 side chain; on linkers, the order of the positions; unused ones are H or OH. Side chains are listed from the residue outwards. Ends that are not written are not given here. * marks the point of attachment. γGlu = O=C(O)[C@H](CCC(=O)[*:2])N[*:1]; Palmitoyl = CCCCCCCCCCCCCCCC(=O)*

T1: human glucose-dependent insulinotropic peptide (gastric inhibitory polypeptide) receptor (human, UniProt P48546 22-466)
T1 sequence (looked up): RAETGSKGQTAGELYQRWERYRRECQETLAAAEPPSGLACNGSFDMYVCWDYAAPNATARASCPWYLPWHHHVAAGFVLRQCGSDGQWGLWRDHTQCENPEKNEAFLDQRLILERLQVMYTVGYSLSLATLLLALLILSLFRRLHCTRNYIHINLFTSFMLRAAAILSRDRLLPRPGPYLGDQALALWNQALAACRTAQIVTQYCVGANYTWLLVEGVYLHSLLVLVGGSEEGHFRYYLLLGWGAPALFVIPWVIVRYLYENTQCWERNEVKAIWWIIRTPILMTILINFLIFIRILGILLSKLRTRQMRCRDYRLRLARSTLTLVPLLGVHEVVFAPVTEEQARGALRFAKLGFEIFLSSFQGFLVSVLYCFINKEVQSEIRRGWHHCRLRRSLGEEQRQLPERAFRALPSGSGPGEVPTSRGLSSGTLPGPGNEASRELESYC

B1: g318 (peptide)
peptide: HSQGTFTSDYSKYLDSRRAQDFVQWLVAGGSSGGSSK(Palmitoyl)-NH2
modifications: N-terminus assumed
SMILES: CCCCCCCCCCCCCCCC(=O)NCCCC[C@H](NC(=O)[C@H](CO)NC(=O)[C@H](CO)NC(=O)CNC(=O)CNC(=O)[C@H](CO)NC(=O)[C@H](CO)NC(=O)CNC(=O)CNC(=O)[C@H](C)NC(=O)[C@@H](NC(=O)[C@H](CC(C)C)NC(=O)[C@H](Cc1c[nH]c2ccccc12)NC(=O)[C@H](CCC(N)=O)NC(=O)[C@@H](NC(=O)[C@H](Cc1ccccc1)NC(=O)[C@H](CC(=O)O)NC(=O)[C@H](CCC(N)=O)NC(=O)[C@H](C)NC(=O)[C@H](CCCNC(=N)N)NC(=O)[C@H](CCCNC(=N)N)NC(=O)[C@H](CO)NC(=O)[C@H](CC(=O)O)NC(=O)[C@H](CC(C)C)NC(=O)[C@H](Cc1ccc(O)cc1)NC(=O)[C@H](CCCCN)NC(=O)[C@H](CO)NC(=O)[C@H](Cc1ccc(O)cc1)NC(=O)[C@H](CC(=O)O)NC(=O)[C@H](CO)NC(=O)[C@@H](NC(=O)[C@H](Cc1ccccc1)NC(=O)[C@@H](NC(=O)CNC(=O)[C@H](CCC(N)=O)NC(=O)[C@H](CO)NC(=O)[C@@H](N)Cc1c[nH]cn1)[C@@H](C)O)[C@@H](C)O)C(C)C)C(C)C)C(N)=O
B2: g317 (peptide)
peptide: HSQGTFTSDYSKYLDSRRAQDFVQWLVAGGSSGGSSK-NH2
B3: g325 (peptide)
peptide: HSQGTFTSDYSKYLDSRRAQDFVQWLVAGGGGGGK-NH2
B4: g402 (peptide)
peptide: HSQGTFTSDYSKYLDSRRAQDFVQWLVAGGSGSGSG-NH2
B5: g840 (peptide)
peptide: HSQGTFTSDYSKYLDSRRAQDFVQWLEAGG-NH2
B6: g320 (peptide)
peptide: HSQGTFTSDYSKYLDSRRAQDFVQWLVAGGPSSGAPPPSK(Palmitoyl)-NH2
B7: g747 (peptide)
peptide: HSQGTFTSDYSKYLDSRRAQDFVQWLEAGGK([γGlu-Palmitoyl])-NH2
modifications: N-terminus assumed
SMILES: CCCCCCCCCCCCCCCC(=O)N[C@@H](CCC(=O)NCCCC[C@H](NC(=O)CNC(=O)CNC(=O)[C@H](C)NC(=O)[C@H](CCC(=O)O)NC(=O)[C@H](CC(C)C)NC(=O)[C@H](Cc1c[nH]c2ccccc12)NC(=O)[C@H](CCC(N)=O)NC(=O)[C@@H](NC(=O)[C@H](Cc1ccccc1)NC(=O)[C@H](CC(=O)O)NC(=O)[C@H](CCC(N)=O)NC(=O)[C@H](C)NC(=O)[C@H](CCCNC(=N)N)NC(=O)[C@H](CCCNC(=N)N)NC(=O)[C@H](CO)NC(=O)[C@H](CC(=O)O)NC(=O)[C@H](CC(C)C)NC(=O)[C@H](Cc1ccc(O)cc1)NC(=O)[C@H](CCCCN)NC(=O)[C@H](CO)NC(=O)[C@H](Cc1ccc(O)cc1)NC(=O)[C@H](CC(=O)O)NC(=O)[C@H](CO)NC(=O)[C@@H](NC(=O)[C@H](Cc1ccccc1)NC(=O)[C@@H](NC(=O)CNC(=O)[C@H](CCC(N)=O)NC(=O)[C@H](CO)NC(=O)[C@@H](N)Cc1c[nH]cn1)[C@@H](C)O)[C@@H](C)O)C(C)C)C(N)=O)C(=O)O
B8: g326 (peptide)
peptide: HSQGTFTSDYSKYLDSRRAQDFVQWLVAGGGGGGK(Palmitoyl)-NH2
modifications: N-terminus assumed
SMILES: CCCCCCCCCCCCCCCC(=O)NCCCC[C@H](NC(=O)CNC(=O)CNC(=O)CNC(=O)CNC(=O)CNC(=O)CNC(=O)[C@H](C)NC(=O)[C@@H](NC(=O)[C@H](CC(C)C)NC(=O)[C@H](Cc1c[nH]c2ccccc12)NC(=O)[C@H](CCC(N)=O)NC(=O)[C@@H](NC(=O)[C@H](Cc1ccccc1)NC(=O)[C@H](CC(=O)O)NC(=O)[C@H](CCC(N)=O)NC(=O)[C@H](C)NC(=O)[C@H](CCCNC(=N)N)NC(=O)[C@H](CCCNC(=N)N)NC(=O)[C@H](CO)NC(=O)[C@H](CC(=O)O)NC(=O)[C@H](CC(C)C)NC(=O)[C@H](Cc1ccc(O)cc1)NC(=O)[C@H](CCCCN)NC(=O)[C@H](CO)NC(=O)[C@H](Cc1ccc(O)cc1)NC(=O)[C@H](CC(=O)O)NC(=O)[C@H](CO)NC(=O)[C@@H](NC(=O)[C@H](Cc1ccccc1)NC(=O)[C@@H](NC(=O)CNC(=O)[C@H](CCC(N)=O)NC(=O)[C@H](CO)NC(=O)[C@@H](N)Cc1c[nH]cn1)[C@@H](C)O)[C@@H](C)O)C(C)C)C(C)C)C(N)=O
B9: g702 (peptide)
peptide: HSQGTFTSDYSK([γGlu-Palmitoyl])YLDSRRAQDFVQWLVAGG-NH2
modifications: N-terminus assumed
SMILES: CCCCCCCCCCCCCCCC(=O)N[C@@H](CCC(=O)NCCCC[C@H](NC(=O)[C@H](CO)NC(=O)[C@H](Cc1ccc(O)cc1)NC(=O)[C@H](CC(=O)O)NC(=O)[C@H](CO)NC(=O)[C@@H](NC(=O)[C@H](Cc1ccccc1)NC(=O)[C@@H](NC(=O)CNC(=O)[C@H](CCC(N)=O)NC(=O)[C@H](CO)NC(=O)[C@@H](N)Cc1c[nH]cn1)[C@@H](C)O)[C@@H](C)O)C(=O)N[C@@H](Cc1ccc(O)cc1)C(=O)N[C@@H](CC(C)C)C(=O)N[C@@H](CC(=O)O)C(=O)N[C@@H](CO)C(=O)N[C@@H](CCCNC(=N)N)C(=O)N[C@@H](CCCNC(=N)N)C(=O)N[C@@H](C)C(=O)N[C@@H](CCC(N)=O)C(=O)N[C@@H](CC(=O)O)C(=O)N[C@@H](Cc1ccccc1)C(=O)N[C@H](C(=O)N[C@@H](CCC(N)=O)C(=O)N[C@@H](Cc1c[nH]c2ccccc12)C(=O)N[C@@H](CC(C)C)C(=O)N[C@H](C(=O)N[C@@H](C)C(=O)NCC(=O)NCC(N)=O)C(C)C)C(C)C)C(=O)O
B10: g728 (peptide)
peptide: HSQGTFTSDYSK([γGlu-Palmitoyl])YLDSRRAQDFVQWLVAGG-NH2
modifications: N-terminus assumed
SMILES: CCCCCCCCCCCCCCCC(=O)N[C@@H](CCC(=O)NCCCC[C@H](NC(=O)[C@H](CO)NC(=O)[C@H](Cc1ccc(O)cc1)NC(=O)[C@H](CC(=O)O)NC(=O)[C@H](CO)NC(=O)[C@@H](NC(=O)[C@H](Cc1ccccc1)NC(=O)[C@@H](NC(=O)CNC(=O)[C@H](CCC(N)=O)NC(=O)[C@H](CO)NC(=O)[C@@H](N)Cc1c[nH]cn1)[C@@H](C)O)[C@@H](C)O)C(=O)N[C@@H](Cc1ccc(O)cc1)C(=O)N[C@@H](CC(C)C)C(=O)N[C@@H](CC(=O)O)C(=O)N[C@@H](CO)C(=O)N[C@@H](CCCNC(=N)N)C(=O)N[C@@H](CCCNC(=N)N)C(=O)N[C@@H](C)C(=O)N[C@@H](CCC(N)=O)C(=O)N[C@@H](CC(=O)O)C(=O)N[C@@H](Cc1ccccc1)C(=O)N[C@H](C(=O)N[C@@H](CCC(N)=O)C(=O)N[C@@H](Cc1c[nH]c2ccccc12)C(=O)N[C@@H](CC(C)C)C(=O)N[C@H](C(=O)N[C@@H](C)C(=O)NCC(=O)NCC(N)=O)C(C)C)C(C)C)C(=O)O
B11: g315 (peptide)
peptide: HSQGTFTSDYSKYLDSRRAQDFVQWLVAGGGGGG-NH2
B12: g701 (peptide)
peptide: HSQGTFTSDYSK([γGlu-Palmitoyl])YLDSRRAQDFVQWLERGG-NH2
modifications: N-terminus assumed
SMILES: CCCCCCCCCCCCCCCC(=O)N[C@@H](CCC(=O)NCCCC[C@H](NC(=O)[C@H](CO)NC(=O)[C@H](Cc1ccc(O)cc1)NC(=O)[C@H](CC(=O)O)NC(=O)[C@H](CO)NC(=O)[C@@H](NC(=O)[C@H](Cc1ccccc1)NC(=O)[C@@H](NC(=O)CNC(=O)[C@H](CCC(N)=O)NC(=O)[C@H](CO)NC(=O)[C@@H](N)Cc1c[nH]cn1)[C@@H](C)O)[C@@H](C)O)C(=O)N[C@@H](Cc1ccc(O)cc1)C(=O)N[C@@H](CC(C)C)C(=O)N[C@@H](CC(=O)O)C(=O)N[C@@H](CO)C(=O)N[C@@H](CCCNC(=N)N)C(=O)N[C@@H](CCCNC(=N)N)C(=O)N[C@@H](C)C(=O)N[C@@H](CCC(N)=O)C(=O)N[C@@H](CC(=O)O)C(=O)N[C@@H](Cc1ccccc1)C(=O)N[C@H](C(=O)N[C@@H](CCC(N)=O)C(=O)N[C@@H](Cc1c[nH]c2ccccc12)C(=O)N[C@@H](CC(C)C)C(=O)N[C@@H](CCC(=O)O)C(=O)N[C@@H](CCCNC(=N)N)C(=O)NCC(=O)NCC(N)=O)C(C)C)C(=O)O
B13: g319 (peptide)
peptide: HSQGTFTSDYSKYLDSRRAQDFVQWLVAGGPSSGAPPPSK-NH2
B14: g316 (peptide)
peptide: HSQGTFTSDYSKYLDSRRAQDFVQWLVAGGSSGGSS-NH2

Experiments:
Assay in all cases: cell-based or functional assay
human GLP-1 receptor = human GLP-1 receptor (human, UniProt P43220 24-463)
human glucagon receptor = human glucagon receptor (human, UniProt P47871 26-477)
Chain of human glucagon receptor (P47871 26-477): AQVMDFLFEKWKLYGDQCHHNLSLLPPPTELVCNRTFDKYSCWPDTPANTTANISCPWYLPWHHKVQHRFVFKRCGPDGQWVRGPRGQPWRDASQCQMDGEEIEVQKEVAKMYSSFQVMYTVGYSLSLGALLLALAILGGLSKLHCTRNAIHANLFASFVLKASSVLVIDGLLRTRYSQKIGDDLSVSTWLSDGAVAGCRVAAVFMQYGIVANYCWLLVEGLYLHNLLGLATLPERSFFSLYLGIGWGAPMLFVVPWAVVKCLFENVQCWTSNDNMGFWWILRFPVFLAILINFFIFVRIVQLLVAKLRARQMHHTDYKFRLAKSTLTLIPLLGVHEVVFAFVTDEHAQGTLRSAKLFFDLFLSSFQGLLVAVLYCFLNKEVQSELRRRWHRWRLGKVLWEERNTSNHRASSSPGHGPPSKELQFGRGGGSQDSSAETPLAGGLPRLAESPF

[1] = target: T1, human glucose-dependent insulinotropic …

Binder | cAMP EC50 (assay 1) (human GLP-1 receptor) | cAMP EC50 (assay 1) (human glucagon receptor) | cAMP EC50 (assay 1) [1]
B1 | 1.14 nM | 9.04 nM | –
B2 | 2.63 nM | – | –
B3 | 0.0261 nM | 0.0103 nM | –
B4 | 0.0857 nM | 0.0596 nM | –
B5 | 0.145 nM | 0.0053 nM | 102 nM
B6 | 0.00938 nM | 0.0032 nM | 1.01 nM
B7 | 3.16 nM | 0.0942 nM | 1040 nM
B8 | 0.0247 nM | 0.00282 nM | 12.6 nM
B9 | – | 1.49 nM | –
B10 | – | 2.44 nM | 395 nM
B11 | 0.0273 nM | 0.00504 nM | 19.7 nM
B12 | 7.4 nM | 3.83 nM | –
B13 | 0.0361 nM | 0.0104 nM | –
B14 | 0.0314 nM | 0.0106 nM | 3.65 nM
